Test results taken from patent publication US8653039 (INDIANA UNIVERSITY RESEARCH AND TECHNOLOGY CORPORA, dated 2014).
Where no end group is shown, it is not given here.

Legend:
[1] = target: cancer specific isoform of proliferating cell nuclear antigen (caPCNA) (human) (UniProt P12004); assay: capture ELISA, XPG-GST on the plate, cell extracts, detection with C20 anti-PCNA antibody
[2] = target: T1, cancer specific isoform of proliferating cell nuclear antigen (caPCNA) (human, UniProt P12004 1-261, acidic isoform; the filing says it differs from nmPCNA by post-translational modification, not by a genetic change; the residues are not stated); assay: competition ELISA, caPCNAab on the plate, purified caPCNA, XPG peptide in increasing amounts
T1 construct: Native protein from MCF7 cell extract, nuclear extract or synthesome fraction, or 'isolated/purified caPCNA' in the ELISAs; also called csPCNA; ca(cs)PCNA
T1 sequence (P12004 whole entry, canonical isoform): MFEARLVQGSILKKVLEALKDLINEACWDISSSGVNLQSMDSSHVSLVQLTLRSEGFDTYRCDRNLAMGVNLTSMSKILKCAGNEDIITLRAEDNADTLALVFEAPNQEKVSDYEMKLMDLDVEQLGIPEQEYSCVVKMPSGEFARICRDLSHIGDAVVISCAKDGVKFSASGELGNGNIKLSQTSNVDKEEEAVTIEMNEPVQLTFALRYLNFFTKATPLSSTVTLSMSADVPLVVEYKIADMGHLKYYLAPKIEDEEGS
Experimental: The wells are washed and then incubated with a goat anti-PCNA antibody (C20) that recognizes the C-terminal 20 amino acids of PCNA. Bound C20 antibody is visualized with an alkaline phosphatase conjugated anti-goat IgG antibody, and bound antibody complex is visualized with […], and quantified by spectrophotometry. The competition experiments shown in this study involve the simultaneous incubation of the ca(cs)PCNA with increasing amounts of the antigenic peptide fragment of caPCNA (referred to as B1 or the PCNA aa126-133 peptide) in this assay.
The ELISA described herein was used to monitor the ability of two peptides to disrupt caPCNA binding to the bound caPCNA antibody. One peptide (H-Gly-Arg-Lys- […] OH) (SEQ ID NO: 29) corresponding to the p21cip/waf1 proteins site of interaction with PCNA was evaluated in this assay, and is shown to have no effect on the binding of caPCNA to the bound caPCNA antibody in this ELISA assay (FIG. 7). […] Therefore, the XPG peptide interacts with its recognized PCNA binding site in order to block binding of the PCNA protein to the caPCNA antibody. This happens if the epitope recognized by the antibody was masked by specifically binding this XPG peptide.

Chain of cancer specific isoform of proliferating cell nuclear antigen (caPCNA) (human) (P12004 whole entry, canonical isoform): as above

Row | Binder | fold colored product (absorbance at 405 nm), MCF7 extract against MCF10A extract [1] [fold] | binding result [2]
1 | LKQLDAQQTQLRIDSFFRLAQQEKEDAKR (peptide, UniProt P28715 981-1009, looked up, not shown: a dimerising Fc or GST, also: fused to GST, order of parts and linker not given here) [XPG-GST fusion protein] | 3 | 
2 | H-QTQLRIDSFFR-OH [XPG peptide corresponding to the XPG-PCNA interaction site of the XPG protein] |  | binds
